According to patent US20250154198A1, “PEPTIDE INHIBITORS OF INTERLEUKIN-23 RECEPTOR” (Zealand Pharma A/S, priority 2021, published 2025):
Read-outs that look alike come from different tables or passages of the source. *1 amine or outer side, *2 acyl side, *3 side chain or, on linkers, in order; H or OH if unused. Bridges are numbered along the chain shown (N, C = ends). Primed or numbered codes have the meaning given here. [ ]: non-standard residue; d: D form. 4‑Aminomethyl‑phenylacetyl = 4-aminomethyl-phenylacetyl unit, its amine closes the lactam, O=C(Cc1ccc(CN[*:1])cc1)[*:2]; 1,3‑dibromopropan‑2‑one = linker (CAS 816-39-7) joining two Cys as 1,3-dithio-propan-2-one bridge -SCH2C(=O)CH2S-; 1,3‑dibromopropan‑2‑one(3) = linker giving 1,3-dithio-propan-2-one bridge -SCH2C(=O)CH2S- between Cys; 2Nal = N[C@@H](Cc1ccc2ccccc2c1)C(=O)O; AEF = NCCOc1ccc(C[C@H](N)C(=O)O)cc1; 3Pal = N[C@@H](Cc1cccnc1)C(=O)O; αMeL = CC(C)C[C@](C)(N)C(=O)O; Dab = NCC[C@H](N)C(=O)O

Key:
[1] = target: T1, human IL-23R endogenously expressed on DB cells (CRL-2289) (human, UniProt Q5VWK5 24-629); assay: cell-based or functional assay
T1 sequence (looked up): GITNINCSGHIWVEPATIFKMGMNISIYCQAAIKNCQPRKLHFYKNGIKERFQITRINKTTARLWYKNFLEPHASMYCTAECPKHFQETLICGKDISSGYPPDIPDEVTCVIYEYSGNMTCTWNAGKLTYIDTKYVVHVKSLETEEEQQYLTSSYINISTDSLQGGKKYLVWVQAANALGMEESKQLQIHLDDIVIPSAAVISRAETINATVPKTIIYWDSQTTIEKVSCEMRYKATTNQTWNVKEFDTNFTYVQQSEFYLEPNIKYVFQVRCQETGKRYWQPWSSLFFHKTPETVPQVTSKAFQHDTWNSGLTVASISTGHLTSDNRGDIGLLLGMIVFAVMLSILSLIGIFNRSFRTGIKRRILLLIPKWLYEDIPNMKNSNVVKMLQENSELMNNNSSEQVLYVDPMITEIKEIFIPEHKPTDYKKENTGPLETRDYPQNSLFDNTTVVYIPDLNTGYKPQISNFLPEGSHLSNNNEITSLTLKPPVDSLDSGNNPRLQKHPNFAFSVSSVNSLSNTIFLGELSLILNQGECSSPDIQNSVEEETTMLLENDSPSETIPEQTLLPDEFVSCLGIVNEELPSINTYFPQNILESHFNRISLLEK

[2] = target: T1, human IL-23R endogenously expressed on …; assay: cell-based or functional assay; remark: listed apart in the source
[3] = target: T1, human IL-23R endogenously expressed on …; assay: cell-based or functional assay; remark: listed apart in the source
[4] = target: T1, human IL-23R endogenously expressed on …; assay: cell-based or functional assay; remark: listed apart in the source
[5] = target: T2, Nluc-IL23R fusion protein (human, UniProt Q5VWK5 22-629); assay: BRET displacement of TAMRA-labelled peptide, Nluc-IL23R membranes
T2 construct: range 22-629; Stably expressed in HEK293 cells; also called hIL-23R; human IL-23R fused to a Nanoluc luciferase enzyme; not shown: Nanoluc luciferase (Promega N1371 plasmid) at the N-terminus
T2 sequence (looked up): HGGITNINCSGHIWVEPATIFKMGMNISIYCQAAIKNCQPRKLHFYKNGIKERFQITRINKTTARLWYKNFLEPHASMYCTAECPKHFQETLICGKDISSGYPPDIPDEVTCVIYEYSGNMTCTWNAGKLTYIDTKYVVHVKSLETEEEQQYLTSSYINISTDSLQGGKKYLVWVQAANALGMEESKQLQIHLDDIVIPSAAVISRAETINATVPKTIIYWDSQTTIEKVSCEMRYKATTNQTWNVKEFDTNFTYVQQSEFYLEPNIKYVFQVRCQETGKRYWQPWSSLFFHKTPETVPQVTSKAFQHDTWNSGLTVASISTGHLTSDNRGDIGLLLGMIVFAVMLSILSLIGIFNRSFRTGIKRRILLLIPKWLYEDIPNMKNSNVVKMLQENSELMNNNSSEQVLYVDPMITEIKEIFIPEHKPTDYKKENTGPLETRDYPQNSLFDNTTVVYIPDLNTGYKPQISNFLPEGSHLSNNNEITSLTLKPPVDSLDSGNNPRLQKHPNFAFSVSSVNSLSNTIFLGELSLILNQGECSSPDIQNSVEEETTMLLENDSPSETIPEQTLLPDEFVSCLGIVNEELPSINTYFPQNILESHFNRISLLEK

[6] = target: T1, human IL-23R endogenously expressed on …; assay: cell-based or functional assay; remark: listed apart in the source

B1: Compound 16 (peptide)
peptide: DESCXQCWWLKR
HELM: PEPTIDE1{[ac].D.E.S.C.[Cc1cccc2c(C[C@H](N[*:1])C(=O)[*:2])c[nH]c12].Q.C.W.W.L.K.R.[am]}|CHEM1{[O=C(C[*:1])C[*:2]]}$PEPTIDE1,PEPTIDE1,3:R3-12:R3|PEPTIDE1,CHEM1,5:R3-1:R1|PEPTIDE1,CHEM1,8:R3-1:R2$$$V2.0
SMILES: CC(=O)N[C@@H](CC(=O)O)C(=O)N[C@H]1CCC(=O)NCCCC[C@@H](C(=O)N[C@@H](CCCNC(=N)N)C(N)=O)NC(=O)[C@H](CC(C)C)NC(=O)[C@H](Cc2c[nH]c3ccccc23)NC(=O)[C@H](Cc2c[nH]c3ccccc23)NC(=O)[C@@H]2CSCC(=O)CSC[C@H](NC(=O)[C@H](CO)NC1=O)C(=O)N[C@@H](Cc1c[nH]c3c(C)cccc13)C(=O)N[C@@H](CCC(N)=O)C(=O)N2
IC50 (pSTAT3) [1]: 461 nM | IC50 (pSTAT3) [2]: 461 nM

Ac-DKSCWQCWWLER-NH2 (lactam 2-11; linker 4-7 via 1,3‑dibromopropan‑2‑one) [Compound 7]
IC50 (pSTAT3) [3]: 159 nM | IC50 (pSTAT3) [1]: 159 nM

Ac-ESCWQCWWLKR-NH2 (lactam 1-10; linker 3-6 via 1,3‑dibromopropan‑2‑one) [Compound 10]
IC50 (pSTAT3) [1]: 617 nM | IC50 (pSTAT3) [4]: 617 nM

[4‑Aminomethyl‑phenylacetyl]SEWQ[Dab][AEF][2Nal][αMeL]E-{NH‑3‑aminopropanoyl} (lactam N-10, 3-6) [Compound 137]
Ki [5]: 0.518 nM | IC50 (pSTAT3) [1]: 24.1 nM

B2: Compound 22 (peptide)
peptide: Ac-DKSCWQCW[2Nal]LER-NH2
modifications: lactam 2-11; bridge 4-7; not fully specified (bridges); printed as [Ac]-DK(1c)SC(2f)WQC(2f)W[2-Nal]LE(1c)R-[NH2]
IC50 (pSTAT3) [1]: > 1 µM | IC50 (pSTAT3) [6]: > 1 µM

B3: Compound 20 (peptide)
peptide: Ac-DKSCWQCW[2Nal]LER-NH2
modifications: lactam 2-11; bridge 4-7; not fully specified (bridges); printed as [Ac]-DK(1c)SC(2d)WQC(2d)W[2-Nal]LE(1c)R-[NH2]
IC50 (pSTAT3) [1]: 79.2 nM | IC50 (pSTAT3) [6]: 79.2 nM

B4: Compound 21 (peptide)
peptide: Ac-DKSCWQCW[2Nal]LER-NH2
modifications: lactam 2-11; bridge 4-7; not fully specified (bridges); printed as [Ac]-DK(1c)SC(2e)WQC(2e)W[2-Nal]LE(1c)R-[NH2]
IC50 (pSTAT3) [1]: > 1 µM | IC50 (pSTAT3) [6]: > 1 µM

Ac-KTCWQC[AEF][2Nal][αMeL]E[Dab][3Pal]-NH2 (lactam 1-10; linker 3-6 via 1,3‑dibromopropan‑2‑one(3)) [Compound 155]
Ki [5]: 0.00805 nM | IC50 (pSTAT3) [1]: 0.0305 nM
